# Test results published in PMC4215257, “Geminin Inhibits a Late Step in the Formation of Human Pre-replicative Complexes*” (The Journal of Biological Chemistry, 2014).
# T1: FLAG-HsGeminin-His6 (wild type) (Homo sapiens (Human), UniProt O75496)
# T1 chain: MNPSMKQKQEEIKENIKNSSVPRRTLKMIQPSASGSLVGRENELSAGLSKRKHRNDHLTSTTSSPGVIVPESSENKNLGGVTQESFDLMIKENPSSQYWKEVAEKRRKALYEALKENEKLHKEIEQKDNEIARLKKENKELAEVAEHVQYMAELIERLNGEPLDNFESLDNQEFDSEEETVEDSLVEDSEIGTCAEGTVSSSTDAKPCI
# B1: FLAG-HsCdt1 (natural protein, human, UniProt Q9H211 1-546, looked up)
# chain: MEQRRVTDFFARRRPGPPRIAPPKLACRTPSPARPALRAPASATSGSRKRARPPAAPGRDQARPPARRRLRLSVDEVSSPSTPEAPDIPACPSPGQKIKKSTPAAGQPPHLTSAQDQDTISELASCLQRARELGARVRALKASAQDAGESCTPEAEGRPEEPCGEKAPAYQRFHALAQPGLPGLVLPYKYQVLAEMFRSMDTIVGMLHNRSETPTFAKVQRGVQDMMRRRFEECNVGQIKTVYPASYRFRQERSVPTFKDGTRRSDYQLTIEPLLEQEADGAAPQLTASRLLQRRQIFSQKLVEHVKEHHKAFLASLSPAMVVPEDQLTRWHPRFNVDEVPDIEPAALPQPPATEKLTTAQEVLARARNLISPRMEKALSQLALRSAAPSSPGSPRPALPATPPATPPAASPSALKGVSQDLLERIRAKEAQKQLAQMTRCPEQEQRLQRLERLPELARVLRSVFVSERKPALSMEVACARMVGSCCTIMSPGEMEKHLLLLSELLPDWLSLHRIRTDTYVKLDKAADLAHITARLAHQTRAEEGL
# notes: human Cdt1; also called human Cdt1; source: Sf9, baculovirus; purified (anti-FLAG M2 agarose, FLAG peptide elution); also in Sf9 lysate; not shown: FLAG, N-terminal, kept
# Tests used:
# [1] = biological target: B1; assay: co-IP; 60 ng purified FLAG-HsCdt1 with 40 ng wild-type or mutant HsGeminin; rabbit anti-human Geminin polyclonal antibodies on protein A/G plus agarose; PBS plus 1 mg/ml BSA, 4 °C, 3 h; washed with PBS plus 0.5 M NaCl; Western blot; conditions: both partners purified
# [2] = biological target: T2, HsMCM467 complex (human, UniProt P33991 1-863; Q14566 1-821; P33993 1-719); assay: recruitment to DNA-coupled magnetic beads; two steps: HsORC or control buffer on pUC19-lamin-B2 DNA beads, then HsMCM467 or HsMCM2–7 with HsCdc6 and/or HsCdt1; 90 mM potassium acetate, 4 mM ATP, 37 °C, 30 min; washed with 100 mM potassium glutamate; Western blot; conditions: both partners purified
# T2 construct: human Mcm4; human Mcm6, untagged; human Mcm7, untagged; source: Sf9 co-infected with baculoviruses for His6-2xFLAG-HsMcm4, HsMcm6 and HsMcm7; purified (Ni-NTA, then FLAG M2 agarose); copies: + +
# [3] = biological target: T3, HsMCM2–7 complex (human | human (endogenous in 293T), UniProt P49736 1-904; P25205 1-808; P33991 1-863; P33992 1-734; Q14566 1-821; P33993 …); assay: as above; conditions: both partners purified
# T3 construct: human Mcm2, full length; Mcm3, endogenous in 293T; Mcm4, endogenous in 293T; Mcm5, endogenous in 293T; Mcm6, endogenous in 293T; Mcm7, endogenous in 293T; also called complete heterohexameric human MCM complex; copies: + + + + +
# [4] = biological target: T1, FLAG-HsGeminin-His6 (wild type); assay: co-immunoprecipitation of purified proteins (anti-Geminin, 0.5 M NaCl wash, Western blot)
# T2 sequence (P33991 whole entry, chain 1 of 3): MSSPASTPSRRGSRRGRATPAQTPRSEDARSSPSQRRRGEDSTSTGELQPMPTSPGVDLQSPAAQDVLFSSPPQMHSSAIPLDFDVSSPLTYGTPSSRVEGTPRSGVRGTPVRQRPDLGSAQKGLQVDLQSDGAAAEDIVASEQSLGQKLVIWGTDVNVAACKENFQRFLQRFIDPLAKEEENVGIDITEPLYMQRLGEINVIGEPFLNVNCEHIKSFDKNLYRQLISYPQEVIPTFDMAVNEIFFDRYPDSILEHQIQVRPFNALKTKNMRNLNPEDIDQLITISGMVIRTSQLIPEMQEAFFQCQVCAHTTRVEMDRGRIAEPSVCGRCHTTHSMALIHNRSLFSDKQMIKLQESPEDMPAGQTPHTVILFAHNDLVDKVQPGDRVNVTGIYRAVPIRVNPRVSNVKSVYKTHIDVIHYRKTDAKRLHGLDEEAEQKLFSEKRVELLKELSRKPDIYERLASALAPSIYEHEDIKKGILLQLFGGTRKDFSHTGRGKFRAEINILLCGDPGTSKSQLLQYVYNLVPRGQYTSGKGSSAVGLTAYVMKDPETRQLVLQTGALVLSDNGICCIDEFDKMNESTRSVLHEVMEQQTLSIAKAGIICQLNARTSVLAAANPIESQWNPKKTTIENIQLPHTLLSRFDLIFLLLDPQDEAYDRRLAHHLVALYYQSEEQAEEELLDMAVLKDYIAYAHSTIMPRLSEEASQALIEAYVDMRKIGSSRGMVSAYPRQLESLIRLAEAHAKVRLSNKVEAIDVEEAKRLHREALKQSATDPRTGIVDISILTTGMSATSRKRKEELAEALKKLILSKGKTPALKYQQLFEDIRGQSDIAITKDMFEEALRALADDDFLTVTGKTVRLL
# T2 sequence (Q14566 whole entry, chain 2 of 3): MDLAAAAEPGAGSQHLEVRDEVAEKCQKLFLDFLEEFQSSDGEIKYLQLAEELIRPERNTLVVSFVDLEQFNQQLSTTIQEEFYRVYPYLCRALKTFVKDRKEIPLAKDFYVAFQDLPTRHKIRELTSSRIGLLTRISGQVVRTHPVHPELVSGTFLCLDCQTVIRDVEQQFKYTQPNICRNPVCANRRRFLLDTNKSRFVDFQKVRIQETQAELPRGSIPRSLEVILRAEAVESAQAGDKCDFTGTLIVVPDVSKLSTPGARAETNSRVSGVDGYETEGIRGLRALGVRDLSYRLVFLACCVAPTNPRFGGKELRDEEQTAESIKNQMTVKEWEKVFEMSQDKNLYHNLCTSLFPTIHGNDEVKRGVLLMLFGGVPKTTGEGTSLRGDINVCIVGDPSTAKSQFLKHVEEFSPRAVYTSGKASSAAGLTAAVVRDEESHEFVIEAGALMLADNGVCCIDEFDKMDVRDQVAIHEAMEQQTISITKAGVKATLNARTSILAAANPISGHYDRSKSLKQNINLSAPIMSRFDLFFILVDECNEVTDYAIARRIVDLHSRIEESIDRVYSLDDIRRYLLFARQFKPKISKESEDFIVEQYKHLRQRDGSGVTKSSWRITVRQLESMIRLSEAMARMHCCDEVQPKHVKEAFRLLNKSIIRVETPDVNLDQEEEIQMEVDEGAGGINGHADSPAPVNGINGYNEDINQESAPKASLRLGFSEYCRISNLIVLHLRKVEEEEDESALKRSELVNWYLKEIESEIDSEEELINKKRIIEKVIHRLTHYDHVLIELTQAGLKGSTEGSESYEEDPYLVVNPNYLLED
# T2 sequence (P33993 whole entry, chain 3 of 3): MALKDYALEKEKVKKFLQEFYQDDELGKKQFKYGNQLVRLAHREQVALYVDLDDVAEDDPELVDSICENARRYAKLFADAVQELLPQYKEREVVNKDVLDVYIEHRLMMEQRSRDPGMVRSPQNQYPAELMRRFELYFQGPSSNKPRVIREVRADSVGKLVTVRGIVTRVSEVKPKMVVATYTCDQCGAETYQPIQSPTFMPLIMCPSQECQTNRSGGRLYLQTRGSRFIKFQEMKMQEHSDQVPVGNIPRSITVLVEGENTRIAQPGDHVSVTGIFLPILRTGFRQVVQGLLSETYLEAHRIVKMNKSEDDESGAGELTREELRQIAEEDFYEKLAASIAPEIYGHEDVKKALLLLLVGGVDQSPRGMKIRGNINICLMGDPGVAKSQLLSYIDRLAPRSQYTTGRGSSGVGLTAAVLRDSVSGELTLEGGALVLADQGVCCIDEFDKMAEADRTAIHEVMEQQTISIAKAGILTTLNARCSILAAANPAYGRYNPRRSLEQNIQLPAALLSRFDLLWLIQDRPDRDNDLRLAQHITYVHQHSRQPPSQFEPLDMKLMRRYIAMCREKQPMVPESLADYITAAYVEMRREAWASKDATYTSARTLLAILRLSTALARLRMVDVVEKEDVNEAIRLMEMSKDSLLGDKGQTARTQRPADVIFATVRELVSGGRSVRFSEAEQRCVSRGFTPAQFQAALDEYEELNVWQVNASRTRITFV
Binder,binding result [1],binding result [2],binding result [3],binding result [4]
"FLAG-HsGeminin-His6 (wild type) (natural protein, human, UniProt O75496 1-209, looked up, also called wild-type HsGeminin; wt; source: Sf9, baculovirus; purified (Ni-NTA, then anti-FLAG M2 agarose); also in Sf9 lysate; not shown: FLAG, N-terminal, kept; His6, C-terminal, kept) MNPSMKQKQEEIKENIKNSSVPRRTLKMIQPSASGSLVGRENELSAGLSKRKHRNDHLTSTTSSPGVIVPESSENKNLGGVTQESFDLMIKENPSSQYWKEVAEKRRKALYEALKENEKLHKEIEQKDNEIARLKKENKELAEVAEHVQYMAELIERLNGEPLDNFESLDNQEFDSEEETVEDSLVEDSEIGTCAEGTVSSSTDAKPCI",binds,,,
"Myc-HsCdc6 (natural protein, human, UniProt Q99741 1-560, looked up, human Cdc6; also called human Cdc6; source: Sf9, baculovirus; purified (anti-c-Myc 9E10 agarose, 9E10 peptide elution); also in Sf9 lysate; not shown: Myc, N-terminal, kept) MPQTRSQAQATISFPKRKLSRALNKAKNSSDAKLEPTNVQTVTCSPRVKALPLSPRKRLGDDNLCNTPHLPPCSPPKQGKKENGPPHSHTLKGRRLVFDNQLTIKSPSKRELAKVHQNKILSSVRKSQEITTNSEQRCPLKKESACVRLFKQEGTCYQQAKLVLNTAVPDRLPAREREMDVIRNFLREHICGKKAGSLYLSGAPGTGKTACLSRILQDLKKELKGFKTIMLNCMSLRTAQAVFPAIAQEICQEEVSRPAGKDMMRKLEKHMTAEKGPMIVLVLDEMDQLDSKGQDVLYTLFEWPWLSNSHLVLIGIANTLDLTDRILPRLQAREKCKPQLLNFPPYTRNQIVTILQDRLNQVSRDQVLDNAAVQFCARKVSAVSGDVRKALDVCRRAIEIVESDVKSQTILKPLSECKSPSEPLIPKRVGLIHISQVISEVDGNRMTLSQEGAQDSFPLQQKILVCSLMLLIRQLKIKEVTLGKLYEAYSKVCRKQQVAAVDQSECLSLSGLLEARGILGLKRNKETRLTKVFFKIEEKEIEHALKDKALIGNILATGLP",,binds,binds,
B1,,binds,,binds
